Experimental data as given in paper PMC4051505, “Crystal structure of human CRMP-4: correction of intensities for lattice-translocation disorder” (Acta Crystallographica Section D: Biological Crystallography, 2014).

Assays:
[1] = target: the molecule itself; assay: crystal structure; CRMP-4 (1-570) crystal form A, space group P21, twinned; 15%(w/v) PEG 6000, 100 mM Na HEPES pH 7.5, 100 mM KCl; protein 15 mg/ml; data at 100 K
[2] = target: the molecule itself; assay: crystal structure; CRMP-4 ΔC (13-490), space group P21; 30%(w/v) PEG 3350, 100 mM sodium tartrate, 100 mM bis-tris propane pH 6.5; protein 18 mg/ml; data at 100 K

Protein	stoichiometry N [1]	stoichiometry N [2]
human CRMP-4 (collapsin response mediator protein 4), full-length, residues 1-570 (natural protein, CRMP-4 (DPYSL3), human, residues 1-570 of NP_001378.1; only residues 12-496/497 (crystal form A) or 12-499 (form B) are resolved in the electron density; The vector pNIC28-Bsa4 extends the coding region by 23 N-terminal residues (hexahistidine tag and TEV site); The tag was deliberately not cleaved for the full-length protein; Homotetramer in both crystal forms and in solution; also called …) not shown	4	
truncated human CRMP-4 (CRMP-4 ΔC), residues 13-490 (domain or fragment, CRMP-4 (DPYSL3), human, residues 13-490 of NP_001378.1; The His tag was removed with TEV protease; A serine from the TEV cleavage site is visible in chains C and D of the structure; Judging from the primer, Ser-Met probably remains before residue 13; Tetramer in the crystal, lower oligomers in solution; also called CRMP-4 ΔC (13-490); source: E. coli BL21(DE3)pLysS, purified (Ni-NTA, TEV …)) not shown		4
